T1: TMPRSS6 expressed in transfected HepG2 cells (UniProt Q8IU80 1-811, limits assumed)
T1 sequence (looked up): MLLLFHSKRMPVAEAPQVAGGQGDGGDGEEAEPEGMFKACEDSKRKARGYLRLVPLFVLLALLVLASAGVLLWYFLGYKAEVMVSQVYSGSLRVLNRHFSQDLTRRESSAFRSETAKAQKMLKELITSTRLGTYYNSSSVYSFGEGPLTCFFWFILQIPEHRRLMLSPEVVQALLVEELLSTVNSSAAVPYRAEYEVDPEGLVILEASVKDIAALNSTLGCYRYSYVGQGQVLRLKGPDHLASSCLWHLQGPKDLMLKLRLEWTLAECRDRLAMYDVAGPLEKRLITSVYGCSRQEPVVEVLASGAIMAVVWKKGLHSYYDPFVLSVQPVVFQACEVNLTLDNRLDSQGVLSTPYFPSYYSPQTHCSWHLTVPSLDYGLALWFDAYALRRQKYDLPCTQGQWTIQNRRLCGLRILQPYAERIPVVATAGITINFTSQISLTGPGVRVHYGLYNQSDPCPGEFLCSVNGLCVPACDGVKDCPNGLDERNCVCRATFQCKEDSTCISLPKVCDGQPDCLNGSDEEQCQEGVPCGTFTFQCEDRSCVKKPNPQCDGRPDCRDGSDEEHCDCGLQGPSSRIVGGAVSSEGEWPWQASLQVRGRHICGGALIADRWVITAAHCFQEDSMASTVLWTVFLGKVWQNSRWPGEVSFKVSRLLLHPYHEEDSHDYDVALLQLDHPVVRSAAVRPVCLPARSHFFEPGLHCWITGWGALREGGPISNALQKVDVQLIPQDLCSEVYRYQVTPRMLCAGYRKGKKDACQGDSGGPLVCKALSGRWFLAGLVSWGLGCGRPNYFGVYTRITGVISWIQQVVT


biological target: T1, TMPRSS6 expressed in transfected HepG2 …; test: cell-based or functional assay

Binder	HAMP promoter activity (HAMP-luciferase reporter assay in HepG2 cells expressing TMPRSS6), EC50 [µg/mL]
MWTx-001 anti-TMPRSS6 antibody (antibody, mouse IgG2a, kappa, V domains shown) VH: QVQLQQPGAELAKPGASVKMSCKASGYTFTSYWITWVKQRPGQDLEWIGNIYPGSGSTYYNEKFKSKATLTVDTSSRTAYMQLSSLTSADSAVYYCAPYDSDYAMDYWGQGTSVTVSS VL: DIKMTQSPSSMYASLGERVTITCKASQDINNYLSWFQQKPGKSPKTLIYRANRLVDGVPSRVSGSGSGQDYSLTISSLEYEDVGIYFCLQYDEFPLTFGAGTKLELKR	3
humanized anti-TMPRSS6 antibody variant hzMWTx-001Var (antibody, human IgG1, kappa, N297A, V domains shown) VH: EVQLVQSGAEVKKPGASVKVSCKASGYTFTSYWITWVRQAPGQRLEWIGNIYPGSGSTYYNEKFKSKATITRDTSSRTAYMELSSLRSEDTAVYYCAPYDADYAMDYWGQGTLVTVSS VL: DIQMTQSPSSLSASVGDRVTITCKASQDISNYLSWFQQKPGKAPKLLIYRANRLVEGVPSRFSGSGSGTDFTLTISSLQPEDFATYFCLQYDEFPLTFGGGTKVEIKR	0.8
MWTx-003 anti-TMPRSS6 antibody (antibody, mouse IgG2b, kappa, V domains shown) VH: EVQLQQSGAELVKPGASVKLSCTASGFNIEDYYIHWVKERTEQGLEWIGRIDPEDGETTYAPQFQGKATIIPDTSSNTAYMQLSSLTSEDAAVYYCARSIYLDPMDYWGQGTSVTVSS VL: DIVMTQSHKFMSTSVGDRVSITCKASQDVTTAVAWYQQKPGQSPKILIYWATTRHTGVPDRFTGSISGTTYILTISSVQAEDLALYYCQQHYSTPYTFGGGTKLEIKR	2

The remaining lines, values ahead:

HAMP promoter activity (HAMP-luciferase reporter assay in HepG2 cells expressing TMPRSS6), EC50 [µg/mL]	Binder
0.3	humanized anti-TMPRSS6 antibody variant hzMWTx-003Var (antibody, human IgG1, kappa, L234A L235A, V domains shown) VH: QVQLVQSGAEVKKPGASVKVSCKASGFNIEDYYMHWVRQAPGQRLEWMGRIDPEDAETTYSPKFQGRVTIIPDTSANTAYMELSSLRSEDTAVYYCARSIYLDPMDYWGQGTLVTVSS VL: DIQMTQSPKSLSASVGDRVTITCRASQDVTTALAWYQQKPGQSPKLLIYWATTRHSGVPSRFSGSGSGTDFTLTISSLQPEDFATYYCQQHYSTPYTFGQGTKLEIKR
0.3	humanized anti-TMPRSS6 antibody variant hzMWTx-002Var (antibody, human IgG1, kappa, N297A, V domains shown) VH: EVQLVQSGAEVKKPGASVKVSCKASGFNIKDYYIHWVRQATGQGLEWMGRIDPEDAESEYAPKFQGRVTITADTSTDTAYMELSSLRSEDTAVYYCTRGDSMMVTYFDYWGQGTLVTVSS VL: DIQMTQSPSSLSASVGDRVTITCKASQDVSTAVAWYQQKPGKAPKLLIYWAFTRHTGVPSRFSGSGSGTDYALTISSLQPEDFATYYCQQHYRSPWTFGGGTKVEIKR

— patent publication US20230203196A1 (MABWELL THERAPEUTICS, published 2023)
